Source: US20160159862A1 (PROTAGONIST THERAPEUTICS, published 2016)
Numbered stars: 1 amine (or outer) side, 2 acyl side, 3 side chain; on linkers, the order of the positions; unused ones are H or OH. Bridge positions count the residues as written; N and C are the ends. Square brackets hold non-standard residues; d marks the D form. Ends that are not written are not given here. Phe(4-CF3) = N[C@@H](Cc1ccc(C(F)(F)F)cc1)C(=O)O; 2Nal = N[C@@H](Cc1ccc2ccccc2c1)C(=O)O; d1Nal = N[C@H](Cc1cccc2ccccc12)C(=O)O; d2Nal = N[C@H](Cc1ccc2ccccc2c1)C(=O)O; Diglycolyl = O=C(COCC(=O)[*:2])[*:1]; NMeR = CN[C@@H](CCCNC(=N)N)C(=O)O; hPhe = N[C@@H](CCc1ccccc1)C(=O)O; NMeE = CN[C@@H](CCC(=O)O)C(=O)O; Tic = O=C(O)[C@@H]1Cc2ccccc2CN1; Cit = NC(=O)NCCC[C@H](N)C(=O)O; Pen = CC(C)(S)[C@H](N)C(=O)O; dNMeK = CN[C@H](CCCCN)C(=O)O; Dab = NCC[C@H](N)C(=O)O; Dap = NC[C@H](N)C(=O)O

B1: SEQ ID NO 6 (peptide)
peptide: Diglycolyl-C[NMeR]SDTLCW-NH2
modifications: disulfide 1-7 (inferred); not fully specified; printed as DIG-NH2-C-(N-Me-R)-S-D-T-L-C-W-NH2
B2: SEQ ID NO 64 (peptide)
peptide: Ac-[Pen][NMeR]SDTL[Pen]W[dE][Dab]
modifications: disulfide 1-7 (inferred); not fully specified (residue 10); printed as Ac-Pen-(N-Me-R)-S-D-T-L-Pen-W-e-Dab-Ac
B3: SEQ ID NO 65 (peptide)
peptide: Ac-[Pen][NMeR]SDTL[Pen]WE[dK]
modifications: disulfide 1-7 (inferred); not fully specified (residue 10); printed as Ac-Pen-(N-Me-R)-S-D-T-L-Pen-W-E-k-Ac
B4: SEQ ID NO 62 (peptide)
peptide: Ac-[Pen][NMeR]SDTL[Pen]WE[Dab]
modifications: disulfide 1-7 (inferred); not fully specified (residue 10); printed as Ac-Pen-(N-Me-R)-S-D-T-L-Pen-W-E-Dab-Ac
B5: SEQ ID NO 5 (peptide)
peptide: Ac-[dK]C[NMeR]SDTLCW[dK]-NH2
modifications: disulfide 2-8 (inferred); not fully specified; printed as DIG-(Ac-k-C-(N-Me-R)-S-D-T-L-C-W-k-NH2)2-DIG
B6: SEQ ID NO 66 (peptide)
peptide: Ac-[Pen][NMeR]SDTL[Pen]W[dE][dK]
modifications: disulfide 1-7 (inferred); not fully specified (residue 10); printed as Ac-Pen-(N-Me-R)-S-D-T-L-Pen-W-e-k-Ac
B7: SEQ ID NO 7 (peptide)
peptide: [Pen][NMeR]SDTL[Pen][dF]-NH2
modifications: disulfide 1-7 (inferred); not fully specified (N-terminus); printed as DIG-NH2-Pen-(N-Me-R)-S-D-T-L-Pen-f-NH2, disulfide; also: DIG-NH2 at N-terminus, probably DIG-linked dimer

What follows are binders tested against α4β7 integrin on human cells (human, UniProt P13612 34-1032; P26010 20-798) (assay: cell-based or functional assay).

α4β7 cell (Hu) IC50 | Binder
> 1000 nM | Ac-[Pen][NMeR]SDTL[Pen]W[dE][Dap] (disulfide 1-7 (inferred); also: Ac written after C-terminal Dap, place unclear) [SEQ ID NO 63]
> 1000 nM | Ac-[Pen][NMeR]SDTL[Pen]WE[Dab]-NH2 (disulfide 1-7 (inferred)) [SEQ ID NO 61]
> 50 nM | B1
≤ 10 nM | Ac-[Pen][NMeR]SDTL[Pen]WF[dK]-NH2 (disulfide 1-7 (inferred); also: homodimer linked by DIG) [SEQ ID NO 85]
> 50 nM | Ac-C[NMeR]SDTL[Pen]W[dK]-NH2 (disulfide 1-7 (inferred); also: homodimer via PEG13 linker) [SEQ ID NO 36]
> 1000 nM | B2
> 10000 nM | B3
> 1000 nM | B4
> 10 nM | XRSDTLXWK ((Ac-Pen-(N-Me-R)-S-D-T-L-Pen-W-k-OH)2-DIG; disulfide) [SEQ ID NO 76]
> 25 nM | Ac-[Pen][NMeR]SDTL[Pen][Phe(4-CF3)][dE][dK]-NH2 (disulfide 1-7 (inferred); also: homodimer via DIG linker) [SEQ ID NO 3]
> 50 nM | B5
> 100 nM | Ac-C[NMeR]SDTL[Pen]W[dK]-NH2 (disulfide 1-7 (inferred); also: homodimer via PEG25 linker) [SEQ ID NO 37]
> 50 nM | Ac-[Pen][NMeR]SDTL[Pen]W[NMeE][dK]-NH2 (disulfide 1-7 (inferred); also: homodimer via DIG linker) [SEQ ID NO 31]
> 25 nM | Ac-[Pen][NMeR]SDTL[Pen]W[dE][dK]-NH2 (disulfide 1-7 (inferred); also: homodimer linked by IDA) [SEQ ID NO 70]
> 100 nM | Ac-[Pen][NMeR]SDTL[Pen]WPK-NH2 (disulfide 1-7 (inferred); also: homodimer linked by DIG) [SEQ ID NO 95]
> 100 nM | Ac-[Pen][NMeR]SDTL[Pen]W[dE][Dap]-NH2 (disulfide 1-7 (inferred)) [SEQ ID NO 55]
> 10000 nM | Ac-[Pen][NMeR]SDTL[Pen]WE[Dap]-NH2 (disulfide 1-7 (inferred)) [SEQ ID NO 59]
> 25 nM | Ac-[Pen][NMeR]SDTL[Pen][d1Nal]E[dK]-NH2 (disulfide 1-7 (inferred); also: homodimer via DIG linker) [SEQ ID NO 34]
> 100 nM | Ac-[Pen][NMeR]SDTL[Pen]WP[dK]-NH2 (disulfide 1-7 (inferred); also: homodimer linked by DIG) [SEQ ID NO 94]
> 50 nM | Ac-[Pen][NMeR]SDTL[Pen]W[dY][dK]-NH2 (disulfide 1-7 (inferred); also: homodimer linked by DIG) [SEQ ID NO 92]

α4β7 cell (Hu) IC50 | Binder
> 10000 nM | B6
> 50 nM | Ac-[Pen][NMeR]SDTL[Pen][2Nal]E-NH2 (disulfide 1-7 (inferred)) [SEQ ID NO 75]
> 10 nM | Ac-[dK]C[NMeR]SDTLCW[dK]-NH2 (disulfide 2-8 (inferred); also: dimer joined by DIG) [SEQ ID NO 4]
> 500 nM | Ac-[Pen][NMeR]SDTL[Pen]W[dE][Dab]-NH2 (disulfide 1-7 (inferred)) [SEQ ID NO 56]
> 100 nM | Ac-[Pen][NMeR]SDTL[Pen][d2Nal]E[dK]-NH2 (disulfide 1-7 (inferred); also: homodimer via DIG linker) [SEQ ID NO 35]
> 25 nM | Ac-[Pen][NMeR]SDTL[Pen]W[dE][dK]-NH2 (disulfide 1-7 (inferred); also: homodimer linked by IDA, IDA-Biotine) [SEQ ID NO 71]
> 1000 nM | Ac-[Pen][NMeR]SDTL[Pen]WE[Dap] (disulfide 1-7 (inferred); also: Ac written after C-terminal Dap, place unclear) [SEQ ID NO 60]
> 500 nM | Ac-[Pen][NMeR]SDTLC[Tic][dE][dK]-NH2 (disulfide 1-7 (inferred); also: homodimer linked by DIG) [SEQ ID NO 93]
> 50 nM | Ac-[Pen][NMeR]SDTL[Pen]WN[dK]-NH2 (disulfide 1-7 (inferred); also: homodimer linked by DIG) [SEQ ID NO 83]
> 100 nM | Ac-[Pen][NMeR]SDTL[Pen]W[dF][dK]-NH2 (disulfide 1-7 (inferred); also: homodimer linked by DIG) [SEQ ID NO 91]
> 50 nM | Ac-[Pen][NMeR]SDTL[Pen]WQ[dK]-NH2 (disulfide 1-7 (inferred); also: homodimer linked by DIG) [SEQ ID NO 82]
> 100 nM | XRSDTLXWK ((Ac-Pen-(N-Me-R)-S-D-T-L-Pen-W-(N-Me-K)-NH2)2-DIG; disulfide) [SEQ ID NO 77]
> 10 nM | Ac-[Pen][NMeR]SDTL[Pen]W[Cit][dK]-NH2 (disulfide 1-7 (inferred); also: homodimer linked by DIG) [SEQ ID NO 84]
> 25 nM | Ac-[Pen][NMeR]SDTL[Pen]W[dE][dK]-NH2 (disulfide 1-7 (inferred); also: homodimer linked by IDA, IDA-PEG4-Biotine) [SEQ ID NO 72]
> 1000 nM | B7
> 10 nM | Ac-[Pen][NMeR]SDTL[Pen][2Nal][dE][dNMeK]-NH2 (disulfide 1-7 (inferred); also: homodimer via DIG linker) [SEQ ID NO 39]
> 50 nM | Ac-[Pen][NMeR]SDTL[Pen][Tic][dE][dK]-NH2 (disulfide 1-7 (inferred); also: homodimer linked by DIG) [SEQ ID NO 80]
> 25 nM | Ac-[Pen][NMeR]SDTL[Pen]WD[dK]-NH2 (disulfide 1-7 (inferred); also: homodimer linked by DIG) [SEQ ID NO 87]
> 25 nM | Ac-[Pen][NMeR]SDTL[Pen][hPhe]E[dK]-NH2 (disulfide 1-7 (inferred); also: homodimer via DIG linker) [SEQ ID NO 45]
